Measurements as given in the supplement of paper PMC10567573.

B1: FLOT1 (parent)
chain: QMAKKAEAFQLYQEAAQLDMLLEK
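Further: lentivirally expressed fusions sorted by FACS into six bins by GFP to DsRed ratio, PSI derived from sequencing read proportions per bin multiplied by bin number.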

Variants of: B1
Assay: protein stability index of a GFP-peptide fusion (GPS, HEK-293T) (PSI 1-6); higher = more stable
Details: c terminus: a fixed tail appended
QMAKKAEAMQLYQEAAQLDMLLEK [F9M] showed a protein stability index of 1.72. For QMAKKAEACQLYQEAAQLDMLLEK [F9C], the protein stability index was 1.41. QMAKKAEATQLYQEAAQLDMLLEK [F9T] gave a protein stability index of 2.11. With QMAKKAEANQLYQEAAQLDMLLEK [F9N] the protein stability index was 1.82. Variant QMAKKAEAQQLYQEAAQLDMLLEK [F9Q] has a protein stability index of 1. Variant QMAKKAEASQLYQEAAQLDMLLEK [F9S] has a protein stability index of 2.01. For QMAKKAEADQLYQEAAQLDMLLEK [F9D], the protein stability index was 3.04. With QMAKKAEAHQLYQEAAQLDMLLEK [F9H] the protein stability index was 2.26. With QMAKKAEAWQLYQEAAQLDMLLEK [F9W] the protein stability index was 1.86. For QMAKKAEAKQLYQEAAQLDMLLEK [F9K], the protein stability index was 2.63. QMAKKAEALQLYQEAAQLDMLLEK [F9L] gave a protein stability index of 2.37. QMAKKAEAEQLYQEAAQLDMLLEK [F9E] showed a protein stability index of 3.65. Variant QMAKKAEAPQLYQEAAQLDMLLEK [F9P] has a protein stability index of 2.08. QMAKKAEAAQLYQEAAQLDMLLEK [F9A] showed a protein stability index of 2. Work on QMAKKAEAIQLYQEAAQLDMLLEK [F9I] yielded a protein stability index of 1.88. QMAKKAEAFQPYQEAAQLDMLLEK [L11P] gave a protein stability index of 4.05. Variant QMAKKAEAFQIYQEAAQLDMLLEK [L11I] has a protein stability index of 2.85. With QMAKKAEAFQCYQEAAQLDMLLEK [L11C] the protein stability index was 1.92. QMAKKAEAFQYYQEAAQLDMLLEK [L11Y] showed a protein stability index of 1.81. QMAKKAEAFQEYQEAAQLDMLLEK [L11E] showed a protein stability index of 3.48. With QMAKKAEAFQFYQEAAQLDMLLEK [L11F] the protein stability index was 2.15. In the case of QMAKKAEAFQMYQEAAQLDMLLEK [L11M], the protein stability index is reported as 1.59. Work on QMAKKAEAFQNYQEAAQLDMLLEK [L11N] yielded a protein stability index of 2.1. In the case of QMAKKAEAFQAYQEAAQLDMLLEK [L11A], the protein stability index is reported as 2.03. For QMAKKAEAFQHYQEAAQLDMLLEK [L11H], the protein stability index was 3.32. With QMAKKAEAFQKYQEAAQLDMLLEK [L11K] the protein stability index was 3.17. Variant QMAKKAEAFQSYQEAAQLDMLLEK [L11S] has a protein stability index of 2.23. Work on QMAKKAEAFQVYQEAAQLDMLLEK [L11V] yielded a protein stability index of 2.98. In the case of QMAKKAEAFQDYQEAAQLDMLLEK [L11D], the protein stability index is reported as 1.82. For QMAKKAEAFQGYQEAAQLDMLLEK [L11G], the protein stability index was 1.76. QMAKKAEAFQLFQEAAQLDMLLEK [Y12F] showed a protein stability index of 1.67. With QMAKKAEAFQLEQEAAQLDMLLEK [Y12E] the protein stability index was 4.41. With QMAKKAEAFQLKQEAAQLDMLLEK [Y12K] the protein stability index was 4.88. For QMAKKAEAFQLNQEAAQLDMLLEK [Y12N], the protein stability index was 4.47. In the case of QMAKKAEAFQLTQEAAQLDMLLEK [Y12T], the protein stability index is reported as 4.17. With QMAKKAEAFQLSQEAAQLDMLLEK [Y12S] the protein stability index was 4.55. Variant QMAKKAEAFQLHQEAAQLDMLLEK [Y12H] has a protein stability index of 2.98. Variant QMAKKAEAFQLPQEAAQLDMLLEK [Y12P] has a protein stability index of 5.08. For QMAKKAEAFQLLQEAAQLDMLLEK [Y12L], the protein stability index was 2.03. QMAKKAEAFQLAQEAAQLDMLLEK [Y12A] gave a protein stability index of 4.22. In the case of QMAKKAEAFQLDQEAAQLDMLLEK [Y12D], the protein stability index is reported as 4.96. Variant QMAKKAEAFQLRQEAAQLDMLLEK [Y12R] has a protein stability index of 4.75. With QMAKKAEAFQLCQEAAQLDMLLEK [Y12C] the protein stability index was 3.06. Work on QMAKKAEAFQLGQEAAQLDMLLEK [Y12G] yielded a protein stability index of 4.56. QMAKKAEAFQLIQEAAQLDMLLEK [Y12I] gave a protein stability index of 2.62. Variant QMAKKTEAFQLYQEAAQLDMLLEK [A6T] has a protein stability index of 1.38. With QMAKKEEAFQLYQEAAQLDMLLEK [A6E] the protein stability index was 1.92. Work on QMAKKDEAFQLYQEAAQLDMLLEK [A6D] yielded a protein stability index of 1.57. In the case of QMAKKWEAFQLYQEAAQLDMLLEK [A6W], the protein stability index is reported as 2.21. For QMAKKNEAFQLYQEAAQLDMLLEK [A6N], the protein stability index was 3.7. With QMAKKKEAFQLYQEAAQLDMLLEK [A6K] the protein stability index was 2.43. QMAKKYEAFQLYQEAAQLDMLLEK [A6Y] showed a protein stability index of 1.53. QMAKKMEAFQLYQEAAQLDMLLEK [A6M] gave a protein stability index of 1.32. QMAKKQEAFQLYQEAAQLDMLLEK [A6Q] showed a protein stability index of 1.91. Variant QMAKKPEAFQLYQEAAQLDMLLEK [A6P] has a protein stability index of 2.37. In the case of QMAKKFEAFQLYQEAAQLDMLLEK [A6F], the protein stability index is reported as 1.99. For QMAKKVEAFQLYQEAAQLDMLLEK [A6V], the protein stability index was 1.75. For QMAKKHEAFQLYQEAAQLDMLLEK [A6H], the protein stability index was 1.99. For QMAKKREAFQLYQEAAQLDMLLEK [A6R], the protein stability index was 1.52. For QMAKKCEAFQLYQEAAQLDMLLEK [A6C], the protein stability index was 1.53. With QMAIKAEAFQLYQEAAQLDMLLEK [K4I] the protein stability index was 2.27. With QMAEKAEAFQLYQEAAQLDMLLEK [K4E] the protein stability index was 2.56. Work on QMAVKAEAFQLYQEAAQLDMLLEK [K4V] yielded a protein stability index of 1.47. QMACKAEAFQLYQEAAQLDMLLEK [K4C] gave a protein stability index of 1.86. With QMAQKAEAFQLYQEAAQLDMLLEK [K4Q] the protein stability index was 1.51. With QMADKAEAFQLYQEAAQLDMLLEK [K4D] the protein stability index was 2.94. QMAHKAEAFQLYQEAAQLDMLLEK [K4H] gave a protein stability index of 2.12. QMAYKAEAFQLYQEAAQLDMLLEK [K4Y] gave a protein stability index of 2.25. With QMANKAEAFQLYQEAAQLDMLLEK [K4N] the protein stability index was 2.38. QMATKAEAFQLYQEAAQLDMLLEK [K4T] showed a protein stability index of 1.15. Variant QMAMKAEAFQLYQEAAQLDMLLEK [K4M] has a protein stability index of 1.55. QMAFKAEAFQLYQEAAQLDMLLEK [K4F] gave a protein stability index of 1.68. In the case of QMAGKAEAFQLYQEAAQLDMLLEK [K4G], the protein stability index is reported as 2.15. In the case of QMAPKAEAFQLYQEAAQLDMLLEK [K4P], the protein stability index is reported as 2.3. Work on QMAAKAEAFQLYQEAAQLDMLLEK [K4A] yielded a protein stability index of 1.43. Work on QMMKKAEAFQLYQEAAQLDMLLEK [A3M] yielded a protein stability index of 2.44. QMYKKAEAFQLYQEAAQLDMLLEK [A3Y] gave a protein stability index of 2.83. In the case of QMVKKAEAFQLYQEAAQLDMLLEK [A3V], the protein stability index is reported as 1.29. Work on QMLKKAEAFQLYQEAAQLDMLLEK [A3L] yielded a protein stability index of 2.63. QMHKKAEAFQLYQEAAQLDMLLEK [A3H] gave a protein stability index of 1.93. In the case of QMPKKAEAFQLYQEAAQLDMLLEK [A3P], the protein stability index is reported as 1.63. QMFKKAEAFQLYQEAAQLDMLLEK [A3F] showed a protein stability index of 1.16. QMWKKAEAFQLYQEAAQLDMLLEK [A3W] gave a protein stability index of 1.21. With QMTKKAEAFQLYQEAAQLDMLLEK [A3T] the protein stability index was 1.16. Work on QMNKKAEAFQLYQEAAQLDMLLEK [A3N] yielded a protein stability index of 3.51. QMIKKAEAFQLYQEAAQLDMLLEK [A3I] showed a protein stability index of 1.88. QMCKKAEAFQLYQEAAQLDMLLEK [A3C] showed a protein stability index of 2.81. Variant QMQKKAEAFQLYQEAAQLDMLLEK [A3Q] has a protein stability index of 1.93. For QMAKKAESFQLYQEAAQLDMLLEK [A8S], the protein stability index was 1.49. QMAKKAEIFQLYQEAAQLDMLLEK [A8I] showed a protein stability index of 2.05. Work on QMAKKAEMFQLYQEAAQLDMLLEK [A8M] yielded a protein stability index of 2.88. Variant QMAKKAEQFQLYQEAAQLDMLLEK [A8Q] has a protein stability index of 1.64. Variant QMAKKAELFQLYQEAAQLDMLLEK [A8L] has a protein stability index of 2.55. QMAKKAEWFQLYQEAAQLDMLLEK [A8W] showed a protein stability index of 1.91.
